± gives the uncertainty stated by the source.

The nature of this data set: self-splicing fitness, log relative to wild type (ln ratio); higher = more splicing; Tetrahymena group I intron in knt gene, E. coli kanamycin selection, DiMSum; sequences stand for … in CUCUCU…GGAGGGAAAAGUUAUCAGGCAUGCACCUGGUAGCUAGUCUUUAAACCAAUAGAUUGCAUCGGUUUAAAAGGCAAGACCGUCAAAUUGCGGGAAAGGGGUCAACAGCCGUUCAGUACCAAGUCUCAGGGGAAACUUUGAGAUGGCCUUGCAAAGGGUAUGGUAAUAAGCUGACGGACAUGGUCCUAACCACGCAGCCAAGUCCUAAGUCAACAGAUCUUCUGUUGAUAUGGAUGCAGUUCACAGACUAAAUGUCGGUCGGGGAAGAUGUAUUCUUCUCAUAAGAUAUAGUCGGACCUCUCCUUAAUGGGAGCUAGCGGAUGAAGUGAUGCAACACUGGAGCCGCUGGGAACUAAUUUGUAUGCGAAAGUAUAUUGAUUAGUUUUGGAGUACUCGUGGUCG
The method in brief:
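Six replicate transformations of E. coli BL21(DE3) with a pET-22b(+) library were grown overnight at 37°C or 30°C. The library randomised all eight P1ex-region intron nucleotides, the intron lying in the knt kanamycin-resistance gene, and plates were LB agar with or without 25 μg/mL kanamycin plus 100 μg/mL carbenicillin, 50 μM IPTG and 0.2% rhamnose. Pooled colonies were amplicon-sequenced on an Illumina HiSeq 2500, and fitness is the DiMSum error-weighted combination of wild-type-normalised replicate fold changes, kanamycin versus none.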

For the sequence UUGAAGCAAUAUUACGGGAC, the “self-splicing fitness (ln)” value runs as follows: (30 °C) -2.18 ± 0.3; (37 °C) -2.34 ± 0.28.
In the same order, the values of GAACAGCAAUAUUACGAUAG are -3.6 ± 0.14 and -0.972 ± 0.094.
AAAAAGCAAUAUUACGGAAG: the “self-splicing fitness (ln)” value (30 °C) was -2.88 ± 0.16 and the “self-splicing fitness (ln)” value (37 °C) was -1.38 ± 0.14.
The corresponding values for CUGAAGCAAUAUUACGGUAC are -2.82 ± 0.18 and -2.71 ± 0.26.
For the sequence UAUUAGCAAUAUUACGCCAU, the “self-splicing fitness (ln)” value (37 °C) was -1.68 ± 0.21.
Turning to AGACAGCAAUAUUACGAUGU, the “self-splicing fitness (ln)” value is, setting by setting: (30 °C) -3.43 ± 0.12; (37 °C) -0.886 ± 0.088.
The corresponding values for GUAGAGCAAUAUUACGUUGA are -2.98 ± 0.2 and -0.879 ± 0.17.
In the case of AUGCAGCAAUAUUACGUGAC, the “self-splicing fitness (ln)” value is -3.3 ± 0.21 (30 °C) and -2.08 ± 0.16 (37 °C).
In the case of AGCCAGCAAUAUUACGGGUU, the “self-splicing fitness (ln)” value reads like this: (30 °C) -3.25 ± 0.15; (37 °C) -3.81 ± 0.25.
As to UUAUAGCAAUAUUACGACUA, the “self-splicing fitness (ln)” value is -0.12 ± 0.23 (30 °C) and -0.299 ± 0.2 (37 °C).
On to CAUAAGCAAUAUUACGCCCA, for which the “self-splicing fitness (ln)” value (30 °C) is -2.14 ± 0.21 and the “self-splicing fitness (ln)” value (37 °C) is -1.35 ± 0.29.
In the same order, the values of ACCGAGCAAUAUUACGGCUA are -0.869 ± 0.096 and -0.288 ± 0.091.
As to GAAUAGCAAUAUUACGUGGC, the “self-splicing fitness (ln)” value runs as follows: (30 °C) -3.67 ± 0.27; (37 °C) -1.34 ± 0.17.
In the same order, the values of GUGGAGCAAUAUUACGCUUG are -1.21 ± 0.16 and -1.25 ± 0.21.
Regarding UCUCAGCAAUAUUACGGAAC, the “self-splicing fitness (ln)” value (30 °C) was -3.48 ± 0.41.
With UGGUAGCAAUAUUACGACUC, the “self-splicing fitness (ln)” value (30 °C) is -0.656 ± 0.23 and the “self-splicing fitness (ln)” value (37 °C) is -0.807 ± 0.35.
For CCCGAGCAAUAUUACGCAGC, where the note is “37 °C”, the “self-splicing fitness (ln)” value was -2.05 ± 0.42.
For AACGAGCAAUAUUACGCGUC, the “self-splicing fitness (ln)” value was -3.01 ± 0.22 (30 °C) and -2.85 ± 0.38 (37 °C).
The corresponding values for CCUAAGCAAUAUUACGCGAU are -3.49 ± 0.24 and -2.31 ± 0.27.
For the sequence GUAGAGCAAUAUUACGGCGG, the “self-splicing fitness (ln)” value reads like this: (30 °C) -1.86 ± 0.12; (37 °C) -1.99 ± 0.18.
The corresponding values for CAUAAGCAAUAUUACGGCUU are -2.75 ± 0.2 and -3.07 ± 0.32.
The corresponding values for GCCCAGCAAUAUUACGCAUC are -0.67 ± 0.075 and -0.106 ± 0.092.
The corresponding values for UGGCAGCAAUAUUACGUCUU are -0.0989 ± 0.044 and 0.494 ± 0.059.
Regarding ACUAAGCAAUAUUACGGUAG, the “self-splicing fitness (ln)” value reads like this: (30 °C) -4.09 ± 0.2; (37 °C) -3.56 ± 0.2.
On to CUGCAGCAAUAUUACGGACA, for which, for the setting “37 °C”, the “self-splicing fitness (ln)” value was -1.44 ± 0.28.
On to UCACAGCAAUAUUACGUACG, for which the “self-splicing fitness (ln)” value (30 °C) is -0.786 ± 0.093 and the “self-splicing fitness (ln)” value (37 °C) is -0.747 ± 0.1.
Turning to CGCUAGCAAUAUUACGAUUA, the “self-splicing fitness (ln)” value is -3.34 ± 0.35 (30 °C) and -2.73 ± 0.31 (37 °C).
In the same order, the values of GAGCAGCAAUAUUACGUCAU are -2.38 ± 0.12 and -1.02 ± 0.13.
For the sequence ACAUAGCAAUAUUACGGGGG, the “self-splicing fitness (ln)” value is, setting by setting: (30 °C) -3.09 ± 0.14; (37 °C) -2.58 ± 0.2.
The corresponding values for UGCAAGCAAUAUUACGAUCA are 0.00924 ± 0.069 and 0.117 ± 0.077.
Take GUUGAGCAAUAUUACGCAUC: the “self-splicing fitness (ln)” value (30 °C) was -1.26 ± 0.25.
For the sequence GACAAGCAAUAUUACGACGG, the “self-splicing fitness (ln)” value was -3.3 ± 0.2 (30 °C) and -2.64 ± 0.17 (37 °C).
In the same order, the values of CGCUAGCAAUAUUACGUGGA are -3.16 ± 0.2 and -2.33 ± 0.18.
As for CCACAGCAAUAUUACGACUG, the “self-splicing fitness (ln)” value is -2.92 ± 0.11 (30 °C) and -0.694 ± 0.092 (37 °C).
The corresponding values for AACUAGCAAUAUUACGCAAG are -3.14 ± 0.14 and -1.77 ± 0.15.
In the same order, the values of CGGAAGCAAUAUUACGUGCA are -3.23 ± 0.23 and -0.628 ± 0.13.
In the same order, the values of UAGCAGCAAUAUUACGGCAA are -0.772 ± 0.16 and 0.622 ± 0.19.
For the sequence CUGGAGCAAUAUUACGCUAG, the “self-splicing fitness (ln)” value (37 °C) is -2.79 ± 0.36.
On to GUAGAGCAAUAUUACGGUGU, for which the “self-splicing fitness (ln)” value reads like this: (30 °C) -1.82 ± 0.081; (37 °C) -1.23 ± 0.099.
Take UAGGAGCAAUAUUACGAAAC: the “self-splicing fitness (ln)” value reads like this: (30 °C) -3.33 ± 0.42; (37 °C) -2.28 ± 0.5.

These data come from the supplement of paper PMC7877785.
